Data: the supplement of paper PMC9170038

Test system: K4 kissing-loop RNA reporter
Experiment: apparent KD of K4 kissing-loop reporter; higher = weaker reporter binding
Details: Eterna round: R107
Protocol: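 RNA-MaP round R107: designed RNA switches with theophylline, tryptophan, arginine or FMN aptamers are transcribed on-chip within common flanks. They are titrated with a labelled K4 kissing-loop RNA reporter in RNA-MaP buffer (100 mM Tris pH 7.5, 80 mM KCl, 4 mM MgCl2), without ligand or with the indicated ligand. Median apparent KD per design.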

[1] = input ligand: theophylline 20 uM
[2] = input ligand: tryptophan 2.4 mM
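Further: bound reporter read as fluorescence of individual clusters on recovered sequencing chips by microscopy, with normalized cluster intensities fitted with a binding model.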

Row | Sequence | apparent KD of K4 kissing-loop reporter (input ligand: FMN 200 uM) | apparent KD of K4 kissing-loop reporter (input ligand: arginine 13.2 mM) | apparent KD of K4 kissing-loop reporter (input ligand: none) | apparent KD of K4 kissing-loop reporter [1] | apparent KD of K4 kissing-loop reporter [2]
1 | UGACAUUGCUCAGAUACCAGACCUGAGGAUCACCCGGGUGCCAAAACGUACUAAAUAAAGGUCCCUUGGCAGCUGAGCAAUGUCU [TheoBX 13] | 56.9 nM | 43.7 nM | 65.5 nM | 49.5 nM | 89.5 nM
2 | AAUGUACAAGUGAUGUUUGUACUUUCCGAAGGAGCGUCUAAUAAGACAGGUAGGUCGCGGAUUCUCUUAAUUAUCAGGUCAUUAA [JR_ExcArginiA_Sub017] | 89.6 nM | 81.3 nM | 86.2 nM | 80.6 nM | 81.6 nM
3 | CCUAUCUCAUACGAUACCAGUCAAUGAUAUUUUAUCAAUGCCAUCACCGAGUGAUGUUCGGACCCUUGGCAGCGUAUGGGAUAGG [whbob_Ex_Theo_B_sa101] | 266 nM | 212 nM | 253 nM | 417 nM | 238 nM
4 | AUUCGUUUAUGUGAUACCAGACUUUGCAGUGAUGUUGCAUUAAUUAAAGAUGUUUAGUUUGUCCCUUGGCAGCACUAUUUAUUUA [JR_SSTheophyB_Sub002] | 43.1 nM | 84.4 nM | 49.6 nM | 83.3 nM | 38.9 nM
5 | GUUACGCAUGGAAGGAGCGCUCUCAGGCUUAAUAACACAGUGAUGUUGUGAAUUUGCCUAAAGCAGGUAGGUCGCCAUGUGUAAC [Ex Arginine B K4 9] | 426 nM | 400 nM | 440 nM | 423 nM | 392 nM
6 | AGUAGAGCAUCAGAUACCAGACAGAACUGAUGGUAAGGAGUGAUGUUCCUUAAUCAGCUUGUCCCUUGGCAGCUGAUAAUAGUCA [#13 K4 Theophylline B Same State] | 423 nM | 437 nM | 475 nM | 359 nM | 438 nM
7 | UCCAGGAAUCAUGUCGUAGUGAUGUUAUGACGAGGACCGGUACGGCCGCCACUCGUCGUGGCCGGUUCUGAGGGCUAAUCUCUCA [theeternabot_exclusion_KL_Trp_A_34] | 247 nM | 214 nM | 273 nM | 227 nM | 632 nM
8 | GCUAGCAUGGCAGGAUAUAGCAAUAGGAGUGAUGUUCCUUGGUAGGUGAGUGAUGUUCACUACCAACUAGAAGGGCCAUGCUAGC | 139 nM | 111 nM | 126 nM | 108 nM | 129 nM
9 | UGGAUUAGGACGGCCGCCACUACGCUGGCAUGAGUGAUGUUCUAAGGCUUGUCAAAGAUCCAGAGUAGGACCGGGUCCAAUGACU [theeternabot_exclusion_KL_Trp_B_38] | 293 nM | 225 nM | 275 nM | 261 nM | 271 nM
10 | UUUAAACAUAGUGAUGUUAUGUAACAAUGACGAGGACCGGUACGGCCGCCACUCGAGAGAGAUAAUGAUAAAAUAAAUAAUUUUC [#09 K4 Tryptophan A Same State] | 109 nM | 111 nM | 118 nM | 115 nM | 92.4 nM
11 | AUGUCUUAUAAACUCAUGGUUUCGACAGAUACCAGCUUCGAGAGGAGCCCUUGGCAGCUGCAUGAGUGAUGUUCAUGUACGAAGA [KL-XTheoA6] | 370 nM | 336 nM | 516 nM | 315 nM | 301 nM
12 | AGUUUAGAGUGACUCGAUAAGAGUCACAAACGAGGACCGGUACGGCCGCCACUCGAAAUAACGAGAGUGAUGUUCUCGCUGGGCA [FiskerMod 3 - Jieux - Same State Tryptophan A] | 332 nM | 377 nM | 458 nM | 384 nM | 126 nM
13 | UGUCAUUGGUCGGCCGCCACUAUAUAAAAGAGUGAUGUUCUAAAGACGGAUCGAAAGAUCUGUCAUAGGACCGGGACCGAUGACU [TrypBS 20 #SwitchBubble #StaticStem] | 293 nM | 204 nM | 308 nM | 294 nM | 1140 nM
14 | CGCAGUGAUGUUGCUUAUAUUCUUGGUUAACGAGGACCGGUACGGCCGCCACUCGAUUUCUAUCUAUUCCAGUGUUAAUUUGAGU [JR_ExcTryptoA_Sub005] | 364 nM | 429 nM | 419 nM | 568 nM | 271 nM
15 | UGACUGGACUGAAGGAGCGCGCGAGACAAAGUCUCGAACUCCUAGUGAUGUUAGGAAAUAACGCAGGUAGGUCGCAGUCUAGUCU [ArgBS 10 #SwitchBubble #StaticStem #DoubleMagnet] | 225 nM | 190 nM | 243 nM | 209 nM | 241 nM
16 | UGUCAUGGAAACAUGAACGUUAAAAUAAAUCGAGGACCGGUACGGCCGCCACUCGUAUAGCGGUCAGUGAUGUUGACUGUAGUAC [KL-SSTryp-A form2 sub11 #dotplot2>1] | 107 nM | 110 nM | 109 nM | 109 nM | 101 nM
17 | AAUAAAAUCACGGCCGCCACUGAUACUAAUAUUAGCAGUGAUGUUGCUAUGUAUAAUUUAUUAAACAGGACCGGGUGAAUAUUUA [JR_ExcTryptoB_Sub015] | 159 nM | 129 nM | 126 nM | 150 nM | 114 nM
18 | AGCGGCCAGUCGGCCGCCACUCCAGGCAGUGAUGUUGCGAAGUUUCUACUAGAGUGAUGUUCUAAGAGGACCGGGACUGACGUAA [Exclusion Tryptophan B Gf 9] | 217 nM | 218 nM | 253 nM | 291 nM | 199 nM
19 | UGACUUGCCUGAGGAUAUCUAGGAUAUGGAUAAAAUAAAAUAAUAAUGGAGUGAUGUUCCAGAAGGAGAGAAGGCAGGUAAGUCU [KL-XFMN-B16 #DoubleAptamer #SwitchBubble] | 190 nM | 116 nM | 96.1 nM | 170 nM | 84 nM
20 | AAAAUAAAUCAGUGAUGUUGGUAUCUGGAUACCAGCGAUAAUAAUCGCCCUUGGCAGCCAUGGACGUACAAAAUAAGUACGUCCU [MatMod 18 - Jieux - Same State - Theophylline A] | 285 nM | 154 nM | 226 nM | 337 nM | 200 nM
21 | AAAUUUAAUAUAUUUAAUUAAUUAUGUGAUACCAGACAUUAAUAAGUCCCUUGGCAGCACAAUGCAGUGAUGUUGCAUAUAAUAA [JR_SSTheophyA_Sub011] | 69.4 nM | 115 nM | 73.5 nM | 84.8 nM | 65.4 nM
